This data set has as its target the compound of Formula IV.

B1: MtbGyrase with MtbGyrAP353L (protein)
chain 1: TDTTLPPDDSLDRIEPVDIEQEMQRSYIDYAMSVIVGRALPEVRDGLKPVHRRVLYAMFDSGFRPDRSHAKSARSVAETMGNYHPHGDASIYDSLVRMAQPWSLRYPLVDGQGNFGSPGNDPPAAMRYTEARLTPLAMEMLREIDEETVDFIPNYDGRVQEPTVLPSRFPNLLANGSGGIAVGMATNIPPHNLRELADAVFWALENHDADEEETLAAVMGRVKGPDFPTAGLIVGSQGTADAYKTGRGSIRMRGVVEVEEDSRGRTSLVITELPYQVNHDNFITSIAEQVRDGKLAGISNIEDQSSDRVGLRIVIEIKRDAVAKVVINNLYKHTQLQTSFGANMLAIVDGVLRTLRLDQLIRYYVDHQLDVIVRRTTYRLRKANERAHILRGLVKALDALDEVIALIRASETVDIARAGLIELLDIDEIQAQAILDMQLRRLAALERQRIIDDLAKIEAEIADLEDILAKPERQRGIVRDELAEIVDRHGDDRRTRIIAADGDVSDEDLIAREDVVVTITETGYAKRTKTDLYRSQKRGGKGVQGAGLKQDDIVAHFFVCSTHDLILFFTTQGRVYRAKAYDLPEASRTARGQHVANLLAFQPEERIAQVIQIRGYTDAPYLVLATRNGLVKKSKLTDFDSNRSGGIVAVNLRDNDELVGAVLCSAGDDLLLVSANGQSIRFSATDEALRPMGRATSGVQGMRFNIDDRLLSLNVVREGTYLLVATSGGYAKRTAIEEYPVQGRGGKGVLTVMYDRRRGRLVGALIVDDDSELYAVTSGGGVIRTAARQVRKAGRQTKGVRLMNLGEGDTLLAIARNAEESGDDNAVDANGADQTGN
chain 2: MAAQKKKAQDEYGAASITILEGLEAVRKRPGMYIGSTGERGLHHLIWEVVDNAVDEAMAGYATTVNVVLLEDGGVEVADDGRGIPVATHASGIPTVDVVMTQLHAGGKFDSDAYAISGGLHGVGVSVVNALSTRLEVEIKRDGYEWSQVYEKSEPLGLKQGAPTKKTGSTVRFWADPAVFETTEYDFETVARRLQEMAFLNKGLTINLTDERVTQDEVVDEVVSDVAEAPKSASERAAESTAPHKVKSRTFHYPGGLVDFVKHINRTKNAIHSSIVDFSGKGTGHEVEIAMQWNAGYSESVHTFANTINTHEGGTHEEGFRSALTSVVNKYAKDRKLLKDKDPNLTGDDIREGLAAVISVKVSEPQFEGQTKTKLGNTEVKSFVQKVCNEQLTHWFEANPTDAKVVVNKAVSSAQARIAARKARELVRRKSATDIGGLPGKLADCRSTDPRKSELYVVEGDSAGGSAKSGRDSMFQAILPLRGKIINVEKARIDRVLKNTEVQAIITALGTGIHDEFDIGKLRYHKIVLMADADVDGQHISTLLLTLLFRFMRPLIENGHVFLAQPPLYKLKWQRSDPEFAYSDRERDGLLEAGLKAGKKINKEDGIQRYKGLGEMDAKELWETTMDPSVRVLRQVTLDDAAAADELFSILMGEDVDARRSFITRNAKDVRFLDV
As for B1, the “compound-induced DNA cleavage compared to wildtype MtbGyrase” value is “reduced cleavage (5 to 100-fold)”.

B2: MtbGyrase with MtbGyrAA32V (protein)
chain 1: TDTTLPPDDSLDRIEPVDIEQEMQRSYIDYVMSVIVGRALPEVRDGLKPVHRRVLYAMFDSGFRPDRSHAKSARSVAETMGNYHPHGDASIYDSLVRMAQPWSLRYPLVDGQGNFGSPGNDPPAAMRYTEARLTPLAMEMLREIDEETVDFIPNYDGRVQEPTVLPSRFPNLLANGSGGIAVGMATNIPPHNLRELADAVFWALENHDADEEETLAAVMGRVKGPDFPTAGLIVGSQGTADAYKTGRGSIRMRGVVEVEEDSRGRTSLVITELPYQVNHDNFITSIAEQVRDGKLAGISNIEDQSSDRVGLRIVIEIKRDAVAKVVINNLYKHTQLQTSFGANMLAIVDGVPRTLRLDQLIRYYVDHQLDVIVRRTTYRLRKANERAHILRGLVKALDALDEVIALIRASETVDIARAGLIELLDIDEIQAQAILDMQLRRLAALERQRIIDDLAKIEAEIADLEDILAKPERQRGIVRDELAEIVDRHGDDRRTRIIAADGDVSDEDLIAREDVVVTITETGYAKRTKTDLYRSQKRGGKGVQGAGLKQDDIVAHFFVCSTHDLILFFTTQGRVYRAKAYDLPEASRTARGQHVANLLAFQPEERIAQVIQIRGYTDAPYLVLATRNGLVKKSKLTDFDSNRSGGIVAVNLRDNDELVGAVLCSAGDDLLLVSANGQSIRFSATDEALRPMGRATSGVQGMRFNIDDRLLSLNVVREGTYLLVATSGGYAKRTAIEEYPVQGRGGKGVLTVMYDRRRGRLVGALIVDDDSELYAVTSGGGVIRTAARQVRKAGRQTKGVRLMNLGEGDTLLAIARNAEESGDDNAVDANGADQTGN
chain 2: MAAQKKKAQDEYGAASITILEGLEAVRKRPGMYIGSTGERGLHHLIWEVVDNAVDEAMAGYATTVNVVLLEDGGVEVADDGRGIPVATHASGIPTVDVVMTQLHAGGKFDSDAYAISGGLHGVGVSVVNALSTRLEVEIKRDGYEWSQVYEKSEPLGLKQGAPTKKTGSTVRFWADPAVFETTEYDFETVARRLQEMAFLNKGLTINLTDERVTQDEVVDEVVSDVAEAPKSASERAAESTAPHKVKSRTFHYPGGLVDFVKHINRTKNAIHSSIVDFSGKGTGHEVEIAMQWNAGYSESVHTFANTINTHEGGTHEEGFRSALTSVVNKYAKDRKLLKDKDPNLTGDDIREGLAAVISVKVSEPQFEGQTKTKLGNTEVKSFVQKVCNEQLTHWFEANPTDAKVVVNKAVSSAQARIAARKARELVRRKSATDIGGLPGKLADCRSTDPRKSELYVVEGDSAGGSAKSGRDSMFQAILPLRGKIINVEKARIDRVLKNTEVQAIITALGTGIHDEFDIGKLRYHKIVLMADADVDGQHISTLLLTLLFRFMRPLIENGHVFLAQPPLYKLKWQRSDPEFAYSDRERDGLLEAGLKAGKKINKEDGIQRYKGLGEMDAKELWETTMDPSVRVLRQVTLDDAAAADELFSILMGEDVDARRSFITRNAKDVRFLDV
B2: the “compound-induced DNA cleavage compared to wildtype MtbGyrase” value is given as “reduced cleavage (5 to 100-fold)”.

B3: MtbGyrase with MtbGyrAI36F (protein)
chain 1: TDTTLPPDDSLDRIEPVDIEQEMQRSYIDYAMSVFVGRALPEVRDGLKPVHRRVLYAMFDSGFRPDRSHAKSARSVAETMGNYHPHGDASIYDSLVRMAQPWSLRYPLVDGQGNFGSPGNDPPAAMRYTEARLTPLAMEMLREIDEETVDFIPNYDGRVQEPTVLPSRFPNLLANGSGGIAVGMATNIPPHNLRELADAVFWALENHDADEEETLAAVMGRVKGPDFPTAGLIVGSQGTADAYKTGRGSIRMRGVVEVEEDSRGRTSLVITELPYQVNHDNFITSIAEQVRDGKLAGISNIEDQSSDRVGLRIVIEIKRDAVAKVVINNLYKHTQLQTSFGANMLAIVDGVPRTLRLDQLIRYYVDHQLDVIVRRTTYRLRKANERAHILRGLVKALDALDEVIALIRASETVDIARAGLIELLDIDEIQAQAILDMQLRRLAALERQRIIDDLAKIEAEIADLEDILAKPERQRGIVRDELAEIVDRHGDDRRTRIIAADGDVSDEDLIAREDVVVTITETGYAKRTKTDLYRSQKRGGKGVQGAGLKQDDIVAHFFVCSTHDLILFFTTQGRVYRAKAYDLPEASRTARGQHVANLLAFQPEERIAQVIQIRGYTDAPYLVLATRNGLVKKSKLTDFDSNRSGGIVAVNLRDNDELVGAVLCSAGDDLLLVSANGQSIRFSATDEALRPMGRATSGVQGMRFNIDDRLLSLNVVREGTYLLVATSGGYAKRTAIEEYPVQGRGGKGVLTVMYDRRRGRLVGALIVDDDSELYAVTSGGGVIRTAARQVRKAGRQTKGVRLMNLGEGDTLLAIARNAEESGDDNAVDANGADQTGN
chain 2: MAAQKKKAQDEYGAASITILEGLEAVRKRPGMYIGSTGERGLHHLIWEVVDNAVDEAMAGYATTVNVVLLEDGGVEVADDGRGIPVATHASGIPTVDVVMTQLHAGGKFDSDAYAISGGLHGVGVSVVNALSTRLEVEIKRDGYEWSQVYEKSEPLGLKQGAPTKKTGSTVRFWADPAVFETTEYDFETVARRLQEMAFLNKGLTINLTDERVTQDEVVDEVVSDVAEAPKSASERAAESTAPHKVKSRTFHYPGGLVDFVKHINRTKNAIHSSIVDFSGKGTGHEVEIAMQWNAGYSESVHTFANTINTHEGGTHEEGFRSALTSVVNKYAKDRKLLKDKDPNLTGDDIREGLAAVISVKVSEPQFEGQTKTKLGNTEVKSFVQKVCNEQLTHWFEANPTDAKVVVNKAVSSAQARIAARKARELVRRKSATDIGGLPGKLADCRSTDPRKSELYVVEGDSAGGSAKSGRDSMFQAILPLRGKIINVEKARIDRVLKNTEVQAIITALGTGIHDEFDIGKLRYHKIVLMADADVDGQHISTLLLTLLFRFMRPLIENGHVFLAQPPLYKLKWQRSDPEFAYSDRERDGLLEAGLKAGKKINKEDGIQRYKGLGEMDAKELWETTMDPSVRVLRQVTLDDAAAADELFSILMGEDVDARRSFITRNAKDVRFLDV
With B3, the “compound-induced DNA cleavage compared to wildtype MtbGyrase” value is on record as “reduced cleavage (5 to 100-fold)”.

B4: MtbGyrase with MtbGyrAM33A (protein)
chain 1: TDTTLPPDDSLDRIEPVDIEQEMQRSYIDYAASVIVGRALPEVRDGLKPVHRRVLYAMFDSGFRPDRSHAKSARSVAETMGNYHPHGDASIYDSLVRMAQPWSLRYPLVDGQGNFGSPGNDPPAAMRYTEARLTPLAMEMLREIDEETVDFIPNYDGRVQEPTVLPSRFPNLLANGSGGIAVGMATNIPPHNLRELADAVFWALENHDADEEETLAAVMGRVKGPDFPTAGLIVGSQGTADAYKTGRGSIRMRGVVEVEEDSRGRTSLVITELPYQVNHDNFITSIAEQVRDGKLAGISNIEDQSSDRVGLRIVIEIKRDAVAKVVINNLYKHTQLQTSFGANMLAIVDGVPRTLRLDQLIRYYVDHQLDVIVRRTTYRLRKANERAHILRGLVKALDALDEVIALIRASETVDIARAGLIELLDIDEIQAQAILDMQLRRLAALERQRIIDDLAKIEAEIADLEDILAKPERQRGIVRDELAEIVDRHGDDRRTRIIAADGDVSDEDLIAREDVVVTITETGYAKRTKTDLYRSQKRGGKGVQGAGLKQDDIVAHFFVCSTHDLILFFTTQGRVYRAKAYDLPEASRTARGQHVANLLAFQPEERIAQVIQIRGYTDAPYLVLATRNGLVKKSKLTDFDSNRSGGIVAVNLRDNDELVGAVLCSAGDDLLLVSANGQSIRFSATDEALRPMGRATSGVQGMRFNIDDRLLSLNVVREGTYLLVATSGGYAKRTAIEEYPVQGRGGKGVLTVMYDRRRGRLVGALIVDDDSELYAVTSGGGVIRTAARQVRKAGRQTKGVRLMNLGEGDTLLAIARNAEESGDDNAVDANGADQTGN
chain 2: MAAQKKKAQDEYGAASITILEGLEAVRKRPGMYIGSTGERGLHHLIWEVVDNAVDEAMAGYATTVNVVLLEDGGVEVADDGRGIPVATHASGIPTVDVVMTQLHAGGKFDSDAYAISGGLHGVGVSVVNALSTRLEVEIKRDGYEWSQVYEKSEPLGLKQGAPTKKTGSTVRFWADPAVFETTEYDFETVARRLQEMAFLNKGLTINLTDERVTQDEVVDEVVSDVAEAPKSASERAAESTAPHKVKSRTFHYPGGLVDFVKHINRTKNAIHSSIVDFSGKGTGHEVEIAMQWNAGYSESVHTFANTINTHEGGTHEEGFRSALTSVVNKYAKDRKLLKDKDPNLTGDDIREGLAAVISVKVSEPQFEGQTKTKLGNTEVKSFVQKVCNEQLTHWFEANPTDAKVVVNKAVSSAQARIAARKARELVRRKSATDIGGLPGKLADCRSTDPRKSELYVVEGDSAGGSAKSGRDSMFQAILPLRGKIINVEKARIDRVLKNTEVQAIITALGTGIHDEFDIGKLRYHKIVLMADADVDGQHISTLLLTLLFRFMRPLIENGHVFLAQPPLYKLKWQRSDPEFAYSDRERDGLLEAGLKAGKKINKEDGIQRYKGLGEMDAKELWETTMDPSVRVLRQVTLDDAAAADELFSILMGEDVDARRSFITRNAKDVRFLDV
In the case of B4, the “compound-induced DNA cleavage compared to wildtype MtbGyrase” value is on record as “reduced cleavage (5 to 100-fold)”.

The record behind these values is US20240287139.
